This test has as its target T1, human programmed cell death protein 1, PD-1 (human, UniProt Q15116 25-288).
T1 construct: In the assay it was the endogenous PD-1 on circulating CD3+ T cells of treated patients; also called CD279; PDCD1
The test is described as follows: PD-1 receptor occupancy by flow cytometry on circulating CD3+ T cells of dosed patients.

The record followed here is patent publication US20190225689A1 (Janssen / Centocor, published 2019).

T1 sequence (Q15116 25-288 limits assumed): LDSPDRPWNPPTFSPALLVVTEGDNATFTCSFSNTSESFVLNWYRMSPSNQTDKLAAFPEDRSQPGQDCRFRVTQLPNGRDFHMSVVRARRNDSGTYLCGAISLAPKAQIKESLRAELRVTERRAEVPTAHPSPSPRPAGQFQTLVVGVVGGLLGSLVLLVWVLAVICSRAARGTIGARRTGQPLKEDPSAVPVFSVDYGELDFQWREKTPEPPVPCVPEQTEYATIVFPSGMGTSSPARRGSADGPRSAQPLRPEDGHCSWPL

B1: JNJ-63723283 (cetrelimab) (antibody, human IgG4 S228P, kappa, V domains shown)
VH: QVQLVQSGAEVKKPGSSVKVSCKASGGTFSSYAISWVRQAPGQGLEWMGGIIPIFDTANYAQKFQGRVTITADESTSTAYMELSSLRSEDTAVYYCARPGLAAAYDTGSLDYWGQGTLVTVSS
VL: EIVLTQSPATLSLSPGERATLSCRASQSVRSYLAWYQQKPGQAPRLLIYDASNRATGIPARFSGSGSGTDFTLTISSLEPEDFAVYYCQQRNYWPLTFGQGTKVEIKR
notes: IgG4/kappa antibody; also called study drug
On to B1, for which the binding result was “binds”.
